Results published in PMC9770967, “Native holdup (nHU) to measure binding affinities from cell extracts” (Science Advances, 2022).
Blank lines part the entries; values can stand above or below the molecule they belong to.

How the values were obtained:
Format in all cases: binding, human
SCRIB_PDZ_2 = test: nHU-MS, SCRIB_PDZ_2 bait, total Jurkat extracts (Exploris MS); settings: for pKapp (nHU-MS): SCRIB_PDZ_2&Jurkat (Exploris)
Description: (§1) To further establish the repeatability and robustness of the nHU-MS assay, we repeated the experiments using a different mass spectrometer and six different PDZ domain baits taken from SCRIB (PDZ_1 and PDZ_2), discs large MAGUK scaffold protein 1 (DLG1, PDZ_1, and PDZ_2), Tax1 binding protein 3 (TAX1BP3), and SNX27 (fig. S3B and table S1). […] Of the studied baits, the PDZ domain of SNX27 turned out to be the most promiscuous with 103 statistically significant interaction partners (while 180 SNX27 binding partners were identified in total on the basis of the three independent nHU-MS experiments).
(§2) For saturating streptavidin resin with biotinylated peptides or biotin, 50 μl of streptavidin resin was mixed with biotin or peptide at 40 to 60 μM concentration in 6 to 6.5 resin volume for 60 min. To saturate streptavidin resin with biotinylated proteins, 50 μl of streptavidin resin (Streptavidin Sepharose High Performance, Cytiva) was mixed with biotinylated MBP or MBP-PDZ at 40 to 50 μM concentration in 20× resin volume for 60 min. After saturation, resins were washed a single time [10 resin volume, holdup buffer: 50 mM tris (pH 7.5), 300 mM NaCl, and 1 mM TCEP, 0.22-μm filtered] and were depleted with biotin (10 resin volume, 10 min, holdup buffer supplemented with 100 μM biotin). Last, resins were washed two times (10 resin volume, holdup buffer).
(§3) For single-point nHU experiments carried out at ~10 μM bait concentration, 50 μl of saturated streptavidin resin was mixed with 200 μl of cell lysate (2 mg/ml). Titration experiments were carried out by mixing control and bait-saturated resin and keeping the total resin volume constant; e.g., ~5 μM bait concentration can be achieved by mixing 25 μl of bait-saturated streptavidin resin with 25 μl of control resin and 200 μl of cell lysate (2 mg/ml). Control and bait-saturated resins were prepared in larger amounts, and a serial dilution was prepared with these presaturated resins to achieve different resin ratios.
(§4) Unless specified elswhere, the nHU mixture was incubated at 4°C for 2 hours. After the incubation ended, the resin was separated from the supernatant by a brief centrifugation (15 s, 2000 g). Then, half of the supernatant was removed by pipetting without any delay to avoid any resin contamination; e.g., 100 μl of supernatant is collected if 200 μl of cell lysate was used as analyte. Alternatively, the supernatant can be centrifuged an additional time to clarify it further, removing any possible resin contamination. In principle, the separation of the supernatant should be as fast as possible since any delay can perturb the equilibrium. […] Alternatively, the resin can be separated from the supernatant using filter plates (e.g., various products of Millipore, Burlington, MA) or spin columns (e.g., Pierce spin cups—cellulose acetate filter from Thermo Fisher Scientific, Waltham, MA) to achieve faster separation.
(§5) The nHU samples were precipitated with trichloroacetic acid (TCA) 20% overnight at 4°C and centrifuged at 14,000 rpm for 10 min at 4°C. The protein pellets were washed twice with 1 ml of cold acetone and air-dried. […]
(§6) Samples were analyzed using an Ultimate 3000 nano-RSLC coupled in line via a nano-electrospray ionization source, with an LTQ-Orbitrap ELITE mass spectrometer (Thermo Fisher Scientific, San Jose, CA) or with the Orbitrap Exploris 480 mass spectrometer (Thermo Fisher Scientific, Bremen, Germany) equipped with a high field asymmetric ion mobility spectrometry (FAIMS) module. […]

SCRIB_PDZ_1 = test: nHU-MS, SCRIB_PDZ_1 bait, total Jurkat extracts (Exploris MS); settings: for pKapp (nHU-MS): SCRIB_PDZ_1&Jurkat (Exploris)
Description: as §1, §2, §3, §4
The nHU samples were precipitated with trichloroacetic acid (TCA) 20% overnight at 4°C and centrifuged at 14,000 rpm for 10 min at 4°C. The protein pellets were washed twice with 1 ml of cold acetone and air-dried. The protein extracts were solubilized in 8 M urea, reduced with 5 mM TCEP for 30 min, and alkylated with 10 mM iodoacetamide for 30 min in the dark. Double digestion was performed at 37°C with 500 ng of endoproteinase Lys-C (Wako, Richmond, USA) for 4 hours, followed by fourfold dilution and an overnight digestion with 500 ng of trypsin (Promega, Charbonnieres les Bains, France). Peptide mixtures were then desalted on a C18 spin-column and dried on a speed vacuum.
as §6

DLG1_PDZ_2 = test: nHU-MS, DLG1_PDZ_2 bait, total Jurkat extracts (Exploris MS); settings: Jurkat extract
Description: as §1, §2
(§7) For single-point nHU experiments carried out at ~10 μM bait concentration, 50 μl of saturated streptavidin resin was mixed with 200 μl of cell lysate (2 mg/ml). […]
as §6

SNX27_PDZ = test: nHU-MS, SNX27_PDZ bait, total Jurkat extracts, series 2 (Exploris MS); settings: Jurkat, series 2, n = 3
Description: as §1, §2, §3, §4, §5, §6

TX1BP3_PDZ = test: nHU-MS, TX1BP3_PDZ (TAX1BP3) bait, total Jurkat extracts (Exploris MS); settings: nHU-MS, total Jurkat extract
Description: as §1, §2, §3
Unless specified elswhere, the nHU mixture was incubated at 4°C for 2 hours. After the incubation ended, the resin was separated from the supernatant by a brief centrifugation (15 s, 2000 g). Then, half of the supernatant was removed by pipetting without any delay to avoid any resin contamination; e.g., 100 μl of supernatant is collected if 200 μl of cell lysate was used as analyte. […]
as §6

DLG1_PDZ_1 = test: nHU-MS, DLG1_PDZ_1 bait, total Jurkat extracts (Exploris MS)
Description: as §1, §2, §7, §6

- pKapp (nHU-MS) (SCRIB_PDZ_2): 4.538
- pKapp (nHU-MS) (SCRIB_PDZ_1): 4.571
B1: FUS (protein, UniProt P35637 1-526, looked up)
RNA-binding protein FUS: MASNDYTQQATQSYGAYPTQPGQGYSQQSSQPYGQQSYSGYSQSTDTSGYGQSSYSSYGQSQNTGYGTQSTPQGYGSTGGYGSSQSSQSSYGQQSSYPGYGQQPAPSSTSGSYGSSSQSSSYGQPQSGSYSQQPSYGGQQQSYGQQQSYNPPQGYGQQNQYNSSSGGGGGGGGGGNYGQDQSSMSSGGGSGGGYGNQDQSGGGGSGGYGQQDRGGRGRGGSGGGGGGGGGGYNRSSGGYEPRGRGGGRGGRGGMGGSDRGGFNKFGGPRDQGSRHDSEQDNSDNNTIFVQGLGENVTIESVADYFKQIGIIKTNKKTGQPMINLYTDRETGKLKGEATVSFDDPPSAKAAIDWFDGKEFSGNPIKVSFATRRADFNRGGGNGRGGRGRGGPMGRGGYGGGGSGGGGRGGFPSGGGGGGGQQRAGDWKCPNPTCENMNFSWRNECNQCKAPKPDGPGGGPGGSHMGGNYGDDRRGGRGGYDRGGYRGRGGDRGGFRGGRGGGDRGGFGPGKMDSRGEHRQDRRERPY

- pKapp (nHU-MS) (SCRIB_PDZ_2): 4.691
- pKapp (nHU-MS) (SCRIB_PDZ_1): 4.689
B2: EWSR1 (protein, UniProt Q01844 1-656, looked up)
RNA-binding protein EWS: MASTDYSTYSQAAAQQGYSAYTAQPTQGYAQTTQAYGQQSYGTYGQPTDVSYTQAQTTATYGQTAYATSYGQPPTGYTTPTAPQAYSQPVQGYGTGAYDTTTATVTTTQASYAAQSAYGTQPAYPAYGQQPAATAPTRPQDGNKPTETSQPQSSTGGYNQPSLGYGQSNYSYPQVPGSYPMQPVTAPPSYPPTSYSSTQPTSYDQSSYSQQNTYGQPSSYGQQSSYGQQSSYGQQPPTSYPPQTGSYSQAPSQYSQQSSSYGQQSSFRQDHPSSMGVYGQESGGFSGPGENRSMSGPDNRGRGRGGFDRGGMSRGGRGGGRGGMGSAGERGGFNKPGGPMDEGPDLDLGPPVDPDEDSDNSAIYVQGLNDSVTLDDLADFFKQCGVVKMNKRTGQPMIHIYLDKETGKPKGDATVSYEDPPTAKAAVEWFDGKDFQGSKLKVSLARKKPPMNSMRGGLPPREGRGMPPPLRGGPGGPGGPGGPMGRMGGRGGDRGGFPPRGPRGSRGNPSGGGNVQHRAGDWQCPNPGCGNQNFAWRTECNQCKAPKPEGFLPPPFPPPGGDRGRGGPGGMRGGRGGLMDRGGPGGMFRGGRGGDRGGFRGGRGMDRGGFGGGRRGGPGGPPGPLMEQMGGRRGGRGGPGKMDKGEHRQERRDRPY

- pKd (SNX27_PDZ; apparent, not filtered for significance): 3.962
- pKd (TX1BP3_PDZ; TX1BP3_PDZ bait, not filtered for significance (pKdsign N/D)): 3.0735
B3: NBDY: Negative regulator of P-body association (protein, UniProt A0A0U1RRE5 1-68, looked up)
Negative regulator of P-body …: MGDQPCASGRSTLPPGNAREAKPPKKRCLLAPRWDYPEGTPNGGSTTLPSAPPPASAGLKSHPPPPEK
- Difference log2 (DLG1_PDZ_2; DLG1_PDZ_2 bait vs MBP): 0.1631
- Ratio DLG1_2/MBP (DLG1_PDZ_2; DLG1_PDZ_2 bait vs MBP): 1.12
- BI (DLG1_PDZ_2; DLG1_PDZ_2 bait): -0.1197
- BI (SNX27_PDZ): 0.08384
- Difference log2 (SNX27_PDZ): -0.1263
- Ratio SNX27/MBP (SNX27_PDZ): 0.9162
- Ratio SCRIB_2/MBP (SCRIB_PDZ_2; nHU-MS, SCRIB_PDZ_2, total Jurkat extract): 1.014
- BI (SCRIB_PDZ_2; nHU-MS, SCRIB_PDZ_2 bait vs MBP, total Jurkat extract): -0.01381
- Difference log2 (SCRIB_PDZ_2; nHU-MS, SCRIB_PDZ_2 vs MBP, total Jurkat extract): 0.01978
- BI (TX1BP3_PDZ; TX1BP3_PDZ bait vs MBP): 0.0117
- Difference log2 (TX1BP3_PDZ; TX1BP3_PDZ vs MBP): -0.01698
- Ratio TX1BP3/MBP (TX1BP3_PDZ; TX1BP3_PDZ): 0.9883
- Ratio DLG1_1/MBP (DLG1_PDZ_1; DLG1_PDZ_1, total Jurkat extract): 1.036
- BI (DLG1_PDZ_1; DLG1_PDZ_1 bait vs MBP, total Jurkat extract): -0.03605
- Difference log2 (DLG1_PDZ_1; DLG1_PDZ_1 vs MBP, total Jurkat extract): 0.0511
- Ratio SCRIB_1/MBP (SCRIB_PDZ_1; nHU-MS, SCRIB_PDZ_1, total Jurkat extract): 1.029
- BI (SCRIB_PDZ_1; nHU-MS, SCRIB_PDZ_1 bait vs MBP, total Jurkat extract): -0.02908
- Difference log2 (SCRIB_PDZ_1; nHU-MS, SCRIB_PDZ_1 vs MBP, total Jurkat extract): 0.04136
